Measurements from PMC10336103, “ResR/McdR-regulated protein translation machinery contributes to drug resilience in Mycobacterium tuberculosis” (Communications Biology, 2023).

Target: the molecule itself
Assay: SEC; […], pH 8.0, 150 mM NaCl; flow rate 0.4 ml/min; […]

B1: ResR/McdR (ResR_(1-225)), 6x His-tagged (natural protein)
chain: MTQLVTRARSARGSTLGEQPRQDQLDFADHTGTAGDGNDGAAAASGPVQPGLFPDDSVPDELVGYRGPSACQIAGITYRQLDYWARTSLVVPSIRSAAGSGSQRLYSFKDILVLKIVKRLLDTGISLHNIRVAVDHLRQRGVQDLANITLFSDGTTVYECTSAEEVVDLLQGGQGVFGIAVSGAMRELTGVIADFHGERADGGESIAAPEDELASRRKHRDRKIG
notes: also called Rv1830; ERDMAN_2020; not shown: His6, N-terminal, kept
- binding result: binds
